Assay results taken from US20230265179A1 (TWIST BIOSCIENCE, published 2023).

Target: T1, IL1RL1 over-expressed on Expi293 cells (UniProt Q01638 19-556, limits assumed)
T1 construct: whole, on cells; Target of the flow cytometry MFI ratio (over-expressing cells over parent cells); also called cytokine over-expressing Expi293 cells
T1 sequence (looked up): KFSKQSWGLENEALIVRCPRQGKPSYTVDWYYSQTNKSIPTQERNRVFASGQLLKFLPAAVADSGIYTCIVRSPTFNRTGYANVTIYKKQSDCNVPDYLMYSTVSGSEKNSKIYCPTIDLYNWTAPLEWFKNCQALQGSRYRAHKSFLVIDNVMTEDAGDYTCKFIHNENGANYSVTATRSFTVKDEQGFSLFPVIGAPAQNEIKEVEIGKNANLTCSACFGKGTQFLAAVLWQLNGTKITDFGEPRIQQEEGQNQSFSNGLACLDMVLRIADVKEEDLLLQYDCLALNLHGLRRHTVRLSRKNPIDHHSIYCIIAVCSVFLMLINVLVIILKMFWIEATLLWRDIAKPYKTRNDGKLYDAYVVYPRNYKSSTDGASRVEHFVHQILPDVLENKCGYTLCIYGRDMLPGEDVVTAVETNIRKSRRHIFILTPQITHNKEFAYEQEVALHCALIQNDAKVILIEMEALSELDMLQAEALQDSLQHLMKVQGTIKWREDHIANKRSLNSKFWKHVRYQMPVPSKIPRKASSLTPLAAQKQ
Test: flow cytometry, 100 nM antibody, over-expressing Expi293 / parent cells
Experimental: All incubations and washes were in buffer containing PBS+1% BSA. MFI Ratio is defined by the mean fluorescence intensity (MFI) of the cytokine over-expressing Expi293 cell over the Expi293 parent cell. […] EC50 was calculated in GraphPad Prism.

| Binder | 100 nM FACS (MFI Ratio) |
| --- | --- |
| IL1RL1-31 (Fc fusion, not shown: a dimerising Fc or GST, VHH-Fc on IgG2 Fc) VHH: EVQLVESGGGLVQPGGSLRLSCAASGFTFRNFGMGWFRQAPGKEREFVALINVGGVAKYADSVKGRFTISADNSKNTAYLQMNSLKPEDTAVYYCTTDARHWGQGTLVTVSS | 311 MFI ratio |
| IL1RL1-30 (Fc fusion, not shown: a dimerising Fc or GST, VHH-Fc on IgG2 Fc) VHH: EVQLVESGGGLVQPGGSLRLSCAASGDISSIVAMGWFRQAPGKEREWVASISTSGSTITPYADSVKGRFTISADNSKNTAYLQMNSLKPEDTAVYYCAAGAVRYGVSTSPMNYNWGQGTLVTVSS | 515 MFI ratio |
| IL1RL1-28 (Fc fusion, not shown: a dimerising Fc or GST, VHH-Fc on IgG2 Fc) VHH: EVQLVESGGGLVQPGGSLRLSCAASGRTISRYTMGWFRQAPGKEREFVAGIWSGGYTHYADSVKGRFTISADNSKNTAYLQMNSLKPEDTAVYYCAAVSSNTEIFDWGQGTLVTVSS | 473 MFI ratio |
| IL1RL1-35 (Fc fusion, not shown: a dimerising Fc or GST, VHH-Fc on IgG2 Fc) VHH: EVQLVESGGGLVQPGGSLRLSCAASGLTISSLTMGWFRQAPGKEREFVAGIWSGGYTHYADSVKGRFTISADNSKNTAYLQMNSLKPEDTAVYYCAAVSSNTEIFDWGQGTLVTVSS | 514 MFI ratio |
| IL1RL1-193 (antibody, V domains shown, IgG2) VH: EVQLLESGGGLVQPGGSLRLSCAASGFTFAKYKMWWVRQAPGKGLEWVSGITRSGSTNYRDSVKGRFTISRDNSKNTLYLQMNSLRAEDTAVYYCASLSRGYWGQGTLVTVSS VL: DIQMTQSPSSLSASVGDRVTITCKASDHIGKFLTWYQQKPGKAPKLLIYHTSRLQSGVPSRFSGSGSGTDFTLTISSLQPEDFATYYCQQGFSNPWTFGQGTKVEIK | 1.62 MFI ratio |
| IL1RL1-36 (Fc fusion, not shown: a dimerising Fc or GST, VHH-Fc on IgG2 Fc) VHH: EVQLVESGGGLVQPGGSLRLSCAASGSIYSLVAMGWFRQAPGKEREWMGVIAYDGSTYYADSVKGRFTISADNSKNTAYLQMNSLKPEDTAVYYCAAVGGATTVTASEWDWGQGTLVTVSS | 87.7 MFI ratio |
| IL1RL1-252 (antibody, V domains shown, IgG2) VH: EVQLLESGGGLVQPGGSLRLSCAASGFTFSRYHIEWVRQAPGKGLEWVSAISGRGDNTYYADSVKGRFTISRDNSKNTLYLQMNSLRAEDTAVYYCARHKGLQPLDYWGQGTLVTVSS VL: DIQMTQSPSSLSASVGDRVTITCRASQDVSSGVAWYQQKPGKAPKLLIYPKHNRPPGVPSRFSGSGSGTDFTLTISSLQPEDFATYYCSARSVRGNPHVLFGQGTKVEIK | 0.58 MFI ratio |
| IL1RL1-256 (antibody, V domains shown, IgG2) VH: EVQLLESGGGLVQPGGSLRLSCAASGFTFDRYRMTWVRQAPGKGLEWVSSIGANGAPTYYADSVKGRFTISRDNSKNTLYLQMNSLRAEDTAVYYCARGRLFDYWGQGTLVTVSS VL: DIQMTQSPSSLSASVGDRVTITCQGASLRNYYASWYQQKPGKAPKLLIYGNNNRPSGVPSRFSGSGSGTDFTLTISSLQPEDFATYYCASRSSKGNPHVLFGQGTKVEIK | 0.6 MFI ratio |
| IL1RL1-29 (Fc fusion, not shown: a dimerising Fc or GST, VHH-Fc on IgG2 Fc) VHH: EVQLVESGGGLVQPGGSLRLSCAASGGFSVYAMGWFRQAPGKEREWVSSTSTGGGGTYYADSVKGRFTISADNSKNTAYLQMNSLKPEDTAVYYCAANVGVTGSYEWGQGTLVTVSS | 431 MFI ratio |
| IL1RL1-230 (antibody, V domains shown, IgG2) VH: EVQLLESGGGLVQPGGSLRLSCAASGFTFSGYIMAWVRQAPGKGLEWVSSISSTGFKTYYADSVKGRFTISRDNSKNTLYLQMNSLRAEDTAVYYCAKGNSRYVFDYWGQGTLVTVSS VL: DIQMTQSPSSLSASVGDRVTITCKASDHIGKFLTWYQQKPGKAPKLLIYGRNKRPSGVPSRFSGSGSGTDFTLTISSLQPEDFATYYCNSRDTSGLHYVFGQGTKVEIK | 1.43 MFI ratio |
| IL1RL1-85 (Fc fusion, not shown: a dimerising Fc or GST, VHH-Fc on IgG2 Fc) VHH: EVQLVESGGGLVQPGGSLRLSCAASGRTFSTAGMGWFRQAPGKEREWVASIITSGSTITPYADSVKGRFTISADNSKNTAYLQMNSLKPEDTAVYYCAVVDLLRGKLWGQGTLVTVSS | 4.47 MFI ratio |
| IL1RL1-76 (Fc fusion, not shown: a dimerising Fc or GST, VHH-Fc on IgG2 Fc) VHH: EVQLVESGGGLVQPGGSLRLSCAASGSIFTIYAMGWFRQAPGKEREWVASISTSGSTITPYADSVKGRFTISADNSKNTAYLQMNSLKPEDTAVYYCATTEYSGYDAVNYWGQGTLVTVSS | 385 MFI ratio |
| IL1RL1-214 (antibody, V domains shown, IgG2) VH: EVQLLESGGGLVQPGGSLRLSCAASGFTFNAYPMTWVRQAPGKGLEWVSAISGRGDNTYYADSVKGRFTISRDNSKNTLYLQMNSLRAEDTAVYYCARPPKRGPRFDYWGQGTLVTVSS VL: DIQMTQSPSSLSASVGDRVTITCKASENVDTYVSWYQQKPGKAPKLLIYGRNKRPSGVPSRFSGSGSGTDFTLTISSLQPEDFATYYCQQGHTLPWTFGQGTKVEIK | 1.34 MFI ratio |
| IL1RL1-33 (Fc fusion, not shown: a dimerising Fc or GST) VHH: EVQLVESGGGLVQPGGSLRLSCAASGGTFSTHWMGWFRQAPGKEREEVAAISWIIGSTYYADSVKGRFTISADNSKNTAYLQMNSLKPEDTAVYYCATSGSGSPNWGQGTLVTVSS | 504 MFI ratio |
| IL1RL1-79 (Fc fusion, not shown: a dimerising Fc or GST, VHH-Fc on IgG2 Fc) VHH: EVQLVESGGGLVQPGGSLRLSCAASGRTFSMGWFRQAPGKEREAVASISWSGGSAFYADSVKGRFTISADNSKNTAYLQMNSLKPEDTAVYYCAAIGGGAVWGQGTLVTVSS | 1 MFI ratio |
| IL1RL1-38 (Fc fusion, not shown: a dimerising Fc or GST, VHH-Fc on IgG2 Fc) VHH: EVQLVESGGGLVQPGGSLRLSCAASGFTFSNHIMGWFRQAPGKERELVAVIIDSRTTKYADSVKGRFTISADNSKNTAYLQMNSLKPEDTAVYYCAAVGGATTVTASEWDWGQGTLVTVSS | 1.37 MFI ratio |
| IL1RL1-80 (Fc fusion, not shown: a dimerising Fc or GST, VHH-Fc on IgG2 Fc) VHH: EVQLVESGGGLVQPGGSLRLSCAASGRTFSPIAMGWFRQAPGKEREMVAVIIDSRTTKYADSVKGRFTISADNSKNTAYLQMNSLKPEDTAVYYCAAVGGATTVTASEWDWGQGTLVTVSS | 1.49 MFI ratio |
| IL1RL1-55 (Fc fusion, not shown: a dimerising Fc or GST, VHH-Fc on IgG2 Fc) VHH: EVQLVESGGGLVQPGGSLRLSCAASGEIASIIAMGWFRQAPGKERELVAVIIGGGSTNYADSVKGRFTISADNSKNTAYLQMNSLKPEDTAVYYCAAVGGATTVTASEWDWGQGTLVTVSS | 1.6 MFI ratio |
| IL1RL1-189 (antibody, V domains shown, IgG2) VH: EVQLLESGGGLVQPGGSLRLSCAASGFTFSSYFMSWVRQAPGKGLEWVSAISREGRATYYADSVKGRFTISRDNSKNTLYLQMNSLRAEDTAVYYCARIRVGPSGGAFDYWGQGTLVTVSS VL: DIQMTQSPSSLSASVGDRVTITCKASDHIGKFLTWYQQKPGKAPKLLIYGRNKRPSGVPSRFSGSGSGTDFTLTISSLQPEDFATYYCQQSYSTPTFGQGTKVEIK | 7.46 MFI ratio |
| IL1RL1-221 (antibody, V domains shown, IgG2) VH: EVQLLESGGGLVQPGGSLRLSCAASGFTFPKYDMMWVRQAPGKGLEWVSSIRGSSSSTYYADSVKGRFTISRDNSKNTLYLQMNSLRAEDTAVYYCARAGRILFDYWGQGTLVTVSS VL: DIQMTQSPSSLSASVGDRVTITCRASQTIERRLNWYQQKPGKAPKLLIYGRNKRPSGVPSRFSGSGSGTDFTLTISSLQPEDFATYYCGQSYRYPLTFGQGTKVEIK | 0.51 MFI ratio |
| IL1RL1-200 (antibody, V domains shown, IgG2) VH: EVQLLESGGGLVQPGGSLRLSCAASGFTFKSYGMHWVRQAPGKGLEWVSLIPHTGNPTYYADSVKGRFTISRDNSKNTLYLQMNSLRAEDTAVYYCARGGPRGNKYYFDYWGQGTLVTVSS VL: DIQMTQSPSSLSASVGDRVTITCSGDKLGHTYTSWYQQKPGKAPKLLIYRKSNRPSGVPSRFSGSGSGTDFTLTISSLQPEDFATYYCYSRDRSGNHLGMFGQGTKVEIK | 1 MFI ratio |
| IL1RL1-192 (antibody, V domains shown, IgG2) VH: EVQLLESGGGLVQPGGSLRLSCAASGFTFGNYAMAWVRQAPGKGLEWVSGITRSGSTNYRDSVKGRFTISRDNSKNTLYLQMNSLRAEDTAVYYCARDRYFRQQNAFDYWGQGTLVTVSS VL: DIQMTQSPSSLSASVGDRVTITCQASQSISSYLAWYQQKPGKAPKLLIYGRNKRPSGVPSRFSGSGSGTDFTLTISSLQPEDFATYYCAQTGTHPTTFGQGTKVEIK | 0.55 MFI ratio |
| IL1RL1-245 (antibody, V domains shown, IgG2) VH: EVQLLESGGGLVQPGGSLRLSCAASGFTLSSYAMSWVRQAPGKGLEWVSGITRSGSTNYRDSVKGRFTISRDNSKNTLYLQMNSLRAEDTAVYYCAKFPFTHGKFDYWGQGTLVTVSS VL: DIQMTQSPSSLSASVGDRVTITCRASQGVRTSLAWYQQKPGKAPKLLIYRASTLASGVPSRFSGSGSGTDFTLTISSLQPEDFATYYCASRSSKGNPHVLFGQGTKVEIK | 1.28 MFI ratio |
| IL1RL1-32 (Fc fusion, not shown: a dimerising Fc or GST, VHH-Fc on IgG2 Fc) VHH: EVQLVESGGGLVQPGGSLRLSCAASGFTLGDYVMGWFRQAPGKEREFVAVIYTSDGSTYYADSVKGRFTISADNSKNTAYLQMNSLKPEDTAVYYCVVSFSTRGPYWGQGTLVTVSS | 432 MFI ratio |
| IL1RL1-239 (antibody, V domains shown, IgG2) VH: EVQLLESGGGLVQPGGSLRLSCAASGFTFRRYVMGWVRQAPGKGLEWVSSISGSSGTTYYADSVKGRFTISRDNSKNTLYLQMNSLRAEDTAVYYCAKAYYGGFDYWGQGTLVTVSS VL: DIQMTQSPSSLSASVGDRVTITCSASSSVSSSYLHWYQQKPGKAPKLLIYRKSNRPSGVPSRFSGSGSGTDFTLTISSLQPEDFATYYCQQSYSTPTFGQGTKVEIK | 1.93 MFI ratio |
